Assay results published in article PMC5921532, “Identification of Iridoid Glucoside Transporters in Catharanthus roseus” (Plant and Cell Physiology, 2017).
Values belong to the molecule of their own block, whether it stands above or below them.

Tests used:
AtNPF2.9 = molecular target: T1, AtNPF2.9 (Arabidopsis thaliana, UniProt Q9M9V7); assay: uptake screen in Xenopus oocytes, LC-MS; assay type: cell-based; conditions: pH 5.0; Kulori buffer; 0.5-1 mM loganin, 1 h
T1 construct: gene NPF2.9; full-length cDNA from transporter library, cRNA expressed in Xenopus laevis oocytes
T1 sequence (Q9M9V7 1-587): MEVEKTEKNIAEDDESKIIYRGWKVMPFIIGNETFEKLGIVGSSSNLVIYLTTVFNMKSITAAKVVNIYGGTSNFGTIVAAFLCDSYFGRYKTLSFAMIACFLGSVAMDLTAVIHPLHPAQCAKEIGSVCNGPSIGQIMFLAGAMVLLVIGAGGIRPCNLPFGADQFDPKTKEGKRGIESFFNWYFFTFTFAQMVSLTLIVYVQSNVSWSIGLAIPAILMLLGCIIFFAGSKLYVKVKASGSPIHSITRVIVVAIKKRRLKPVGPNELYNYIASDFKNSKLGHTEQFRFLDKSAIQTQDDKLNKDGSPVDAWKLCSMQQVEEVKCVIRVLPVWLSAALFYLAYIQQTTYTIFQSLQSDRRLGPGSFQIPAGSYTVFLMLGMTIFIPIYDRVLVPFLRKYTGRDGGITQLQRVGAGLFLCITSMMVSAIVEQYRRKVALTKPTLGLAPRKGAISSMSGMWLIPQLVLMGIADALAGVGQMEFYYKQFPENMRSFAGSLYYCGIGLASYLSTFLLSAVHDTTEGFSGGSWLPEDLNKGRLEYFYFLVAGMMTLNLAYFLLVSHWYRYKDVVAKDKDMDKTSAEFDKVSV

AtNAT4 = molecular target: T2, AtNAT4 (Arabidopsis thaliana, UniProt P93039); assay: uptake screen in Xenopus oocytes, LC-MS; assay type: cell-based; conditions: pH 5.0; Kulori buffer; 0.5-1 mM loganin, 1 h
T2 construct: gene NAT4; full-length cDNA from transporter library, cRNA expressed in Xenopus laevis oocytes
T2 sequence (P93039 1-526): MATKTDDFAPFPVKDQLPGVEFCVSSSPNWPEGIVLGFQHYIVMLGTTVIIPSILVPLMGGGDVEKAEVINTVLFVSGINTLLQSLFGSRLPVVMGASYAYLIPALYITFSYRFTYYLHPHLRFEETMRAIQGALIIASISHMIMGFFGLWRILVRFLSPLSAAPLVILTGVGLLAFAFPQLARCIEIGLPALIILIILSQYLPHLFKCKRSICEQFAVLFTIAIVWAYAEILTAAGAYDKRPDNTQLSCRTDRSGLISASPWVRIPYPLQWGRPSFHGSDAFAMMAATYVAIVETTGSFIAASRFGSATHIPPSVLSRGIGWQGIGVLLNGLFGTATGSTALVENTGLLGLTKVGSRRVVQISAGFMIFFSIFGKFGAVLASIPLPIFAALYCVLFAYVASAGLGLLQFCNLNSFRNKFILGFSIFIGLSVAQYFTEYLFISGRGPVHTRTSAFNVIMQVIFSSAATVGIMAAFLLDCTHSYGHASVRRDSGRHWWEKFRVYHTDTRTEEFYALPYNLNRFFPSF

[1] = substrate: COC(=O)C1=CO[C@@H](O[C@@H]2O[C@H](CO)[C@@H](O)[C@H](O)[C@H]2O)[C@@H]2[C@@H](C)[C@@H](O)C[C@H]12; assay: uptake into Xenopus oocytes, LC-MS, Michaelis-Menten fit; assay type: cell-based, Catharanthus roseus; conditions: pH 5.0, Kulori buffer, 12.5 µM to 2 mM loganin

uptake screen in Xenopus oocytes, LC-MS (AtNPF2.9): initially screened cDNA library
uptake screen in Xenopus oocytes, LC-MS (AtNAT4): Two transporters were identified
Molecule: COC(=O)C1=CO[C@@H](O[C@@H]2O[C@H](CO)[C@@H](O)[C@H](O)[C@H]2O)[C@@H]2[C@@H](C)[C@@H](O)C[C@H]12 [loganin, (1S,4aS,6S,7R,7aS)-6-hydroxy-7-methyl-1-[(2S,3R,4S,5S,6R)-3,4,5-trihydroxy-6-(hydroxymethyl)oxan-2-yl]oxy-1,4a,5,6,7,7a-hexahydrocyclopenta[c]pyran-4-carboxylate]

B1: CrNPF2.5 (Catharanthus roseus) (protein)
chain: MEENQEHKAIKNHEPNYRGIKAMPFVIGNETFEKLGTIGTSTNLLIYLTSVFHMKTITATNLVNIFNGTCNFGTLVGAFLCDTYFGRYNTLGFASVSSFLGMLVLTLTAAIKNLHPEACGNEEGSKCISPSGGQMAFLLSGFAFLIVGASGIRPCNLAFGADQFNPNTDSGRRGINSFFNWYYFTYTFAMMVSLTIIVYVQSNISWSIGLAIPTFLMFLSCATFFVGTRIYVRVLPEGSPLISVARVIVSAFKKRKLELPDEPKLSLFNHSASSTSSINSKISYTDQFRFLNKAAIITSEDEFNSDGSVKNPWRICTIQQVEEVKCLLKLIPVWISCIIYYISVVQQQNYVVFQALQSDRRLFGTSKFKIPAASYIVIAMLALTIWIPIFDRIIVPCLQKITGKEGGITILQRMGIGMVLSVLTMITSALVESKRRKFALNRPTLGFEPRKGAISSMSGVWLIPQLALSGLSEAFTIIGENELFYKECPENMRSIAMALVFVGFAGSSYLSSLLSSIVQKTTGGNESWLAEDLNRGRLDYFYYLIGALETLNLIYFLVCSKWYKYKQVEKIPQVAMEKLNNVEEKSLV
notes: full-length, Gateway cloned from C. roseus cDNA into pOO2-GW, cRNA expressed in Xenopus laevis oocytes
Km [1]: 387 ± 57 µM

B2: CrNPF2.4 (Catharanthus roseus) (protein)
chain: MAEKSSSIDATENGFVKIKEPNHRGVKAMPFIVGNETFEKLGTLGTSANLLIYLTTVFHMKSITATNLINIFNGTCNFGTLLGAFFSDTYFGRYKTLGFASVSSTLGMLILTLTAAISKLHPPSCEKNSKACSGPTSGQFAFLFTAFLFLIIGASGIRPCNLAFGADQFNPNTESGRKGTNSFFNWYYFTFTFAMMVSLTVIVYVQSSISWALGLAIPTFLMLLSCVFFFVGSRIYVKVLPEGSPLTSMMQVIVAAFRKRKLNLPDHQPWDSLFNYISPSSINSKLSYTDQFRWLNKAAIKTSKDHLYAEGSTANPWRLCSMQQVEEVKCVIRSIPIWTSGVLYYVVLNQMSTYLVFQALQSDRRIGKTNFKIPAASYTVFSMLSLSIWIPIYDRIIVPFLRKITKTEQGITILQKMGFGLVIAVITMVVSAIIEDKRRVIALTRPIVGIEERKGGISSLSGFWLVPQLALAGISEAFTVIAQVEFFYKQFPENMRSFGGSFLFCGFAISSYLSSFLISIVHKVTRNSSGGNWLDEDLNKARLDYFYYLVAGLEVLNFGYFLVCAHWYRYKETQSGNEIAMEQILDEPKKNLDVV
notes: as for B1
Km [1]: 237 ± 35 µM

B3: CrNPF2.6 (Catharanthus roseus) (protein)
chain: MEKNEKLVPNGTKEDGKVAAKNEPNYRGIKAMPFVLGNETCEKLGTIGTSSNLSVYLSTVFHMNTMSANNVINIFNGTCYLGSLVGAFLCDTYFGRYKTLGLGSVASFLGMLMLTLTAAISTLHPTNCDNSGDCKGPSAGQMAFLVGGFVLMVIGASGIRPCNLAFGADQFNPNTESGRRGINSFFNWYYFTYTFAVMVSATIIVYVQSDISWSIGFAIPTSLMFLSCALFFAGTWLYVKVLPQGSPMTSLVQVIVVSVKKRRLKLPGEPSLLFNHIPSNAINSKLPRTNNFRFLDKAAILTPEDKVNPDGSAANKWKLCSIQQVEEVKCVLRVLPIWIAGVIFQISVTQQSNYVPFQAFQSDRHLIKGNKFQIPAGTYNVFSMLALTIWLPIYDRIIIPLLRRWTKKEDGITLLQRMGVGIVLSILSMLVSALVESRRRNLALTRPTLGIQEGQGSISSMSALWFVPQLALMGLAEGFTFIGENELFYKEFPENMRSIAASLVLCGVAVASYLTSFIAEIVHKTTRSGTRDWLAQDLNKARLDYFFYMVAVLEALNLVYFLVCAKWYRYKGTGDLGKLEVAMEKLETEKHLV
notes: as for B1
Km [1]: 60 ± 5 µM
